Measured values as given in US20100048482A1 (Stanford University, published 2010).

Molecular target: heat shock protein 90 (HSP90), endogenous, rat heart (rat, UniProt P82995 2-733, limits assumed)
Experiment: co-immunoprecipitation and western blot, mitochondria of rat hearts after IR with or without 1 µM ψεHSP90 peptide
Experimental: 200-500 μg of mitochondrial or cytosolic protein was diluted into 1 ml of IP Lysis Buffer (150 mM NaCl, 10 mM Tris-HCl, 5 mM EDTA, 0.1% Triton X-100, pH=7.4, containing Sigma Protease Inhibitor 1 and Sigma Phosphatase Inhibitors 1 and 2). […] 10 μg of Protein A/G Beads (Santa Cruz Biotechnology) were added and the mixture was incubated overnight at 4° C. with inversion mixing. Beads were then centrifuged, washed 3× in IP Lysis Buffer, then re-suspended in sample buffer. Immunoprecipitated proteins were separated on 10% SDS-PAGE gels. […] A beads alone group was also included for each sample set to assess any non-specific protein binding to the beads.

fold increase in co-immunoprecipitation with ψεHSP90 peptide treatment against IR alone: ~4 fold
B1: epsilon protein kinase C (εPKC), endogenous, rat heart (enzyme)
chain: MVVFNGLLKIKICEAVSLKPTAWSLRHAVGPRPQTFLLDPYIALNVDDSRIGQTATKQKTNSPAWHDEFVTDVCNGRKIELAVFHDAPIGYDDFVANCTIQFEELLQNGSRHFEDWIDLEPEGKVYVIIDLSGSSGEAPKDNEERVFRERMRPRKRQGAVRRRVHQVNGHKFMATYLRQPTYCSHCRDFIWGVIGKQGYQCQVCTCVVHKRCHELIITKCAGLKKQETPDEVGSQRFSVNMPHKFGIHNYKVPTFCDHCGSLLWGLLRQGLQCKVCKMNVHRRCETNVAPNCGVDARGIAKVLADLGVTPDKITNSGQRRKKLAAGAESPQPASGNSPSEDDRSKSAPTSPCDQELKELENNIRKALSFDNRGEEHRASSSTDGQLASPGENGEVRQGQAKRLGLDEFNFIKVLGKGSFGKVMLAELKGKDEVYAVKVLKKDVILQDDDVDCTMTEKRILALARKHPYLTQLYCCFQTKDRLFFVMEYVNGGDLMFQIQRSRKFDEPRSGFYAAEVTSALMFLHQHGVIYRDLKLDNILLDAEGHSKLADFGMCKEGILNGVTTTTFCGTPDYIAPEILQELEYGPSVDWWALGVLMYEMMAGQPPFEADNEDDLFESILHDDVLYPVWLSKEAVSILKAFMTKNPHKRLGCVAAQNGEDAIKQHPFFKEIDWVLLEQKKMKPPFKPRIKTKRDVNNFDQDFTREEPILTLVDEAIVKQINQEEFKGFSYFGEDLMP
notes: Endogenous protein in mitochondrial or cytosolic fractions of Wistar rat hearts, immunoprecipitated from lysate; also called PKCε; epsilon PKC
